Measured values from paper PMC4894640.

Target: F-actin (polymerized non-muscle actin) (UniProt P60709)
Experiment: co-sedimentation; as the F-actin co-sedimentation, with in vitro synthesized HA-RAB-10(Q68L) (control: HA-only) added to the mixture

Q: Which increase of co-sedimentation with HA-RAB-10(Q68L) against without does the source give for “GST-EHBP-1(260-901aa) (domain or fragment)” here?
A: 67%
